B1: Maintenance of carboxysome distribution protein B (McdB) from Synechococcus elongatus PCC 7942, wild type (natural protein, UniProt Q8GJM6 1-152, looked up)
chain: MTDAFDRLKKRSRTPIAREGSLTTGPELSDRPLQLLPREFETFCDRYAVHAGDVIEAALDLVLLDPDLQQRLLQRLRQGNGSDRVWLGTACPRSWQQQLQQQAQDQGLSEADLLQEAIAQRLDLVLGQTTLREEVTLLRQELDQLKRKLHGW
notes: McdB of Synechococcus elongatus PCC 7942; also called Se McdB; β-McdB; source: E. coli BL21-AI, purified (HisTrap, Ulp1 cleavage, SEC); not shown: His-SUMO, N-terminal, cleaved
B2: Se McdB[∆W152] (natural protein, Synechococcus elongatus PCC 7942, UniProt Q8GJM6 1-152, looked up)
chain: MTDAFDRLKKRSRTPIAREGSLTTGPELSDRPLQLLPREFETFCDRYAVHAGDVIEAALDLVLLDPDLQQRLLQRLRQGNGSDRVWLGTACPRSWQQQLQQQAQDQGLSEADLLQEAIAQRLDLVLGQTTLREEVTLLRQELDQLKRKLHG
notes: McdB of Synechococcus elongatus PCC 7942 with the final C-terminal tryptophan W152 deleted; Parent is m1; source: E. coli BL21-AI, purified (HisTrap, Ulp1 cleavage, SEC); not shown: His-SUMO, N-terminal, cleaved

Target: the molecule itself
Experiment: SEC-MALS; 50 µl at 1.5 mg/ml on a Shodex PROTEIN KW-804 column, 0.4 ml/min, 150 mM KCl, 20 mM Tris-HCl pH 8.2

| Protein | stoichiometry N |
| --- | --- |
| B1 | 6 |
| B2 | 6 |

Reference: paper PMC11321042, “An invariant C-terminal tryptophan in McdB mediates its interaction and positioning function with carboxysomes” (Molecular Biology of the Cell, 2024)
